T1: human CD20 antigen (human, UniProt P11836 1-297)
T1 construct: whole, on cells; also called Bp35; B1
T1 sequence (looked up): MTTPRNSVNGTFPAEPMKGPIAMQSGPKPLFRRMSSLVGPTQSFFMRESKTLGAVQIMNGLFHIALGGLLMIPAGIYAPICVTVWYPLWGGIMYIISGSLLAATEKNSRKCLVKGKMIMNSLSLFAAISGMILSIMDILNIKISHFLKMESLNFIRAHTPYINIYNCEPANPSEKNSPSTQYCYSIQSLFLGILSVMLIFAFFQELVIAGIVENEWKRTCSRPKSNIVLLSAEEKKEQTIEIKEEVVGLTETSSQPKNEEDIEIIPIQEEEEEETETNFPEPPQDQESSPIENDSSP


Experiments:
[1] = target: human CD20 antigen (human) (UniProt P11836); assay: flow cytometry, EB1 cells (CD20 positive)
[2] = target: human CD20 antigen (human) (UniProt P11836); assay: flow cytometry, EHEB cells (CD20 positive)
[3] = target: human CD20 antigen (human) (UniProt P11836); assay: flow cytometry, Daudi cells (CD20 positive)
[4] = target: human CD20 antigen (human) (UniProt P11836); assay: flow cytometry, Daudi cells (CD20 positive); remark: listed apart in the source
human CD20 antigen [5] = target: T1, human CD20 antigen; assay: flow cytometry, EB1 cells (CD20 positive)
Procedure: (§1) Binding specificity was assessed by Fluorometric Microvolume Assay Technology (FMAT, Applied Biosystems 8200 Cellular Detection System) and Flow Cytometry, which tabulates Mean Fluorescence Intensities (MFI) of staining on CD20 positive (CD20⁺) and CD20 negative cell lines.

human CD20 antigen [6] = target: T1, human CD20 antigen; assay: flow cytometry, EHEB cells (CD20 positive)
Procedure: (§2) Binding specificity was assessed by Flow Cytometry, which tabulates Mean Fluorescence Intensities (MFI) of staining on CD20 positive (CD20⁺) and CD20 negative cell lines.

human CD20 antigen [7] = target: T1, human CD20 antigen; assay: flow cytometry, Daudi cells (CD20 positive)
Procedure: as §1

human CD20 antigen [8] = target: T1, human CD20 antigen; assay: flow cytometry, Daudi cells (CD20 positive); remark: listed apart in the source
Procedure: as §2

human CD20 antigen [9] = target: T1, human CD20 antigen; assay: flow cytometry, CHO.CD20 cells (CD20 positive)
Procedure: as §2

Mean Fluorescence Intensity (MFI) (human CD20 antigen [5]) | Mean Fluorescence Intensity (MFI) (human CD20 antigen [6]) | Mean Fluorescence Intensity (MFI) (human CD20 antigen [7]) | Mean Fluorescence Intensity (MFI) (human CD20 antigen [8]) | Mean Fluorescence Intensity (MFI) (human CD20 antigen [9]) | other results | Molecule
– | – | – | – | – | Mean Fluorescence Intensity (MFI) [1]: 429 MFI; Mean Fluorescence Intensity (MFI) [2]: 130 MFI; Mean Fluorescence Intensity (MFI) [3]: 145 MFI; Mean Fluorescence Intensity (MFI) [4]: 941 MFI | mAb 271 (rituximab-sequence antibody)
395 | 161 | 132 | 1370 | 106 | – | optimized humanized mAb 1237 (antibody, V domains shown, detected with anti-human Ig Fc) VH: QVQLVQSGAEVKKPGSSVKVSCKASGYTFTSYNMHWVRQAPGQGLEWIGAIYPGNGDTSYNQKFKGKATITADKSTSTAYMELSSLRSDDTAVYYCARSTYYAGDWNFNNWGQGTLVTVSS VL: DIQMTQSPSSLSASVGDRVTITCRASSSVSYIHWFQQKPGKAPKPLIYAASSLQSGVPSRFSGSGSGTDYTLTISSLQPEDFATYYCQQWTSNPPTFGGGTKLEIK
– | 529 | – | 1420 | 135 | – | optimized humanized mAb 1652 (antibody, V domains shown) VH: QVQLVQSGAEVKKPGSSVKVSCKASGYTFTSYNMHWVRQAPGQGLEWIGAIYPGNGATSYNQKFKGKATITADKSTSTAYMELSSLRSDDTAVYYCARSTYYAGDWNFNNWGQGTLVTVSS VL: DIQMTQSPSSLSASVGDRVTITCRASSSVSYIHWFQQKPGKAPKPLIYAASSLQSGVPSRFSGSGSGTDYTLTISSLQPEDFATYYCQQWQSNPPTFGGGTKLEIK
– | 429 | – | 1630 | 135 | – | optimized humanized mAb 1590 (antibody, V domains shown) VH: QVQLVQSGAEVKKPGSSVKVSCKASGYTFTSYNMHWVRQAPGQGLEWIGAIYPGNGLTSYNQKFKGKATITADKSTSTAYMELSSLRSDDTAVYYCARSTYYAGDWNFNNWGQGTLVTVSS VL: DIQMTQSPSSLSASVGDRVTITCRASSSVSYIHWFQQKPGKAPKPLIYAASSLQSGVPSRFSGSGSGTDYTLTISSLQPEDFATYYCQQWTSNPPTFGGGTKLEIK
– | 338 | – | 2070 | 140 | – | optimized humanized mAb 1588 (antibody, V domains shown) VH: QVQLVQSGAEVKKPGSSVKVSCKASGYTFTFYNMHWVRQAPGQGLEWIGAIYPGNGDTSYNQKFKGKATITADKSTSTAYMELSSLRSDDTAVYYCARSTYYAGDWNFNNWGQGTLVTVSS VL: DIQMTQSPSSLSASVGDRVTITCRASSSVSYIHWFQQKPGKAPKPLIYAASSLQSGVPSRFSGSGSGTDYTLTISSLQPEDFATYYCQQWTSNPPTFGGGTKLEIK
– | 345 | – | 1030 | 140 | – | optimized humanized mAb 1589 (antibody, V domains shown) VH: QVQLVQSGAEVKKPGSSVKVSCKASGYTFTSYNMHWVRQAPGQGLEWIGAIYPGNGATSYNQKFKGKATITADKSTSTAYMELSSLRSDDTAVYYCARSTYYAGDWNFNNWGQGTLVTVSS VL: DIQMTQSPSSLSASVGDRVTITCRASSSVSYIHWFQQKPGKAPKPLIYAASSLQSGVPSRFSGSGSGTDYTLTISSLQPEDFATYYCQQWTSNPPTFGGGTKLEIK
– | 450 | – | 1670 | 137 | – | optimized humanized mAb 1692 (antibody, V domains shown) VH: QVQLVQSGAEVKKPGSSVKVSCKASGYTFTSYNMHWVRQAPGQGLEWIGAIYPGNGDTSYNQKFKGKATITADKSTSTAYMELSSLRSDDTAVYYCARSTYYAGDWNFGNWGQGTLVTVSS VL: DIQMTQSPSSLSASVGDRVTITCRASSSVSYIHWFQQKPGKAPKPLIYAASSLQSGVPSRFSGSGSGTDYTLTISSLQPEDFATYYCQQWTSNPPTFGGGTKLEIK
389 | – | 114 | – | – | – | optimized humanized mAb 1238 (antibody, V domains shown, detected with anti-human Ig Fc) VH: QVQLVQSGAEVKKPGSSVKVSCKASGYTFTSYNMHWVRQAPGQGLEWIGAIYPGNGDTSYNQKFKGKATITADKSTSTAYMELSSLRSDDTAVYYCARSTYYAGDWNFNDWGQGTLVTVSS VL: DIQMTQSPSSLSASVGDRVTITCRASSSVSYIHWFQQKPGKAPKPLIYAASSLQSGVPSRFSGSGSGTDYTLTISSLQPEDFATYYCQQWTSNPPTFGGGTKLEIK
409 | – | 145 | – | – | – | optimized humanized mAb 1236 (antibody, V domains shown, detected with anti-human Ig Fc) VH: QVQLVQSGAEVKKPGSSVKVSCKASGYTFTSYNMHWVRQAPGQGLEWIGAIYPGNGDTSYNQKFKGKATITADKSTSTAYMELSSLRSDDTAVYYCARSTYYGGDWNFNNWGQGTLVTVSS VL: DIQMTQSPSSLSASVGDRVTITCRASSSVSYIHWFQQKPGKAPKPLIYAASSLQSGVPSRFSGSGSGTDYTLTISSLQPEDFATYYCQQWTSNPPTFGGGTKLEIK
